Assay results: US20140227291A1 (AbbVie / Abbott, published 2014)
Each block holds one binder with its values, some of them ahead of it.

Experiments:
[1] = target: T1, Abeta(20-42) globulomer (human); assay: dot blot, antigen dilution series on nitrocellulose, antibody 0.2 µg/ml, densitometry; reference antigen
T1 construct: Oligomer; also called amyloid-beta (20-42) globulomer
T1 peptide: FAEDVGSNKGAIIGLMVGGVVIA
Procedure: (§1) The dot blot was developed with 10 ml BM Blue POD Substrate for 10 min. The development was stopped by intense washing of the dot blot with H₂O. Quantitative evaluation was done based on a densitometric analysis (GS800 densitometer (BioRad) and software package Quantity one, Version 4.5.0 (Bio-Rad)) of the dot intensity. […] This threshold value was determined for every dot blot independently. The calculated value indicates the relation between recognition of Aβ(20-42) globulomer and the respective Aβ form for the given antibody.
(§2) The individual Aβ forms were applied in serial dilutions and incubated with the respective antibodies for immune reaction (1=Aβ(1-42) monomer, 0.1% NH₄OH; 2=Aβ(1-40) monomer, 0.1% NH₄OH; 3=Aβ(1-42) monomer, 0.1% NaOH; 4=Aβ(1-40) monomer, 0.1% NaOH; 5=Aβ(1-42) globulomer; 6=Aβ(12-42) globulomer; 7=Aβ(20-42) globulomer; 8=Aβ(1-42) fibril preparation; 9=sAPPα (Sigma); (first dot: 1 pmol)).

[2] = target: T2, Abeta(12-42) globulomer (human); assay: dot blot, antigen dilution series on nitrocellulose, antibody 0.2 µg/ml, densitometry
T2 construct: Oligomer
T2 peptide: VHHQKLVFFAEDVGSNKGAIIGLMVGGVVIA
Procedure: as §1, §2

[3] = target: T3, sAPPalpha (Sigma cat. no. S9564) (UniProt P05067-4 18-612, limits assumed); assay: dot blot, antigen dilution series on nitrocellulose (first dot 1 pmol), antibody 0.2 µg/ml, densitometry
T3 construct: Bought protein; also called sAPPα; soluble Abeta precursor

[4] = target: T4, Abeta(1-40) monomer in 0.1% NaOH (human); assay: dot blot, antigen dilution series on nitrocellulose, antibody 0.2 µg/ml, densitometry
T4 construct: also called Abeta(1-40) monomer, 0.1% NaOH
Procedure: as §1, §2

[5] = target: T5, Abeta(1-42) monomer in 0.1% NH4OH (human); assay: as above
T5 construct: also called Abeta(1-42) monomer, 0.1% NH4OH
Procedure: as §1, §2

[6] = target: T6, Abeta(1-40) monomer in 0.1% NH4OH (human); assay: as above
T6 construct: also called Abeta(1-40) monomer, 0.1% NH4OH
Procedure: as §1, §2

[7] = target: T7, Abeta(1-42) globulomer (human, UniProt P05067 672-713); assay: as above
T7 construct: also called 38/48-kDa Abeta(1-42) globulomer
Procedure: as §1, §2

[8] = target: T8, Abeta(1-42) fibril preparation (human, UniProt P05067 672-713); assay: as above
T8 construct: also called Abeta(1-42) fibrils
Procedure: as §1, §2

[9] = target: T9, Abeta(1-42) monomer in 0.1% NaOH (human); assay: as above
T9 construct: also called Abeta(1-42) monomer, 0.1% NaOH
Procedure: as §1, §2

[10] = target: T4, Abeta(1-40) monomer in 0.1% NaOH; assay: dot blot: antigen dilution series dotted on nitrocellulose, anti-mouse-IgG-POD detection
Procedure: (§3) In order to characterize the selectivity of monoclonal anti Aβ(20-42) globulomer antibodies, they were tested for binding to different Aβ-forms. To this end, serial dilutions of the individual Aβ(1-42) forms ranging from 100 pmol/μl to 0.00001 pmol/μl in PBS supplemented with 0.2 mg/ml BSA were prepared. 1 μl of each dilution was blotted onto a nitrocellulose membrane. Detection was performed by incubating with the corresponding antibody (0.2 μg/ml) followed by immunostaining using Peroxidase conjugated anti-mouse-IgG and the staining reagent BM Blue POD Substrate (Roche).
as §2

[11] = target: T5, Abeta(1-42) monomer in 0.1% NH4OH; assay: as above
Procedure: as §3, §2

[12] = target: T6, Abeta(1-40) monomer in 0.1% NH4OH; assay: as above
Procedure: as §3, §2

[13] = target: T7, Abeta(1-42) globulomer; assay: as above
Procedure: as §3, §2

[14] = target: T3, sAPPalpha (Sigma cat. no. S9564); assay: as above
Procedure: as §3, §2

[15] = target: T2, Abeta(12-42) globulomer; assay: as above
Procedure: as §3, §2

[16] = target: T8, Abeta(1-42) fibril preparation; assay: as above
Procedure: as §3, §2

[17] = target: T9, Abeta(1-42) monomer in 0.1% NaOH; assay: as above
Procedure: as §3, §2

T3 sequence (P05067 other isoform, or with tags, fused parts or gaps limits assumed): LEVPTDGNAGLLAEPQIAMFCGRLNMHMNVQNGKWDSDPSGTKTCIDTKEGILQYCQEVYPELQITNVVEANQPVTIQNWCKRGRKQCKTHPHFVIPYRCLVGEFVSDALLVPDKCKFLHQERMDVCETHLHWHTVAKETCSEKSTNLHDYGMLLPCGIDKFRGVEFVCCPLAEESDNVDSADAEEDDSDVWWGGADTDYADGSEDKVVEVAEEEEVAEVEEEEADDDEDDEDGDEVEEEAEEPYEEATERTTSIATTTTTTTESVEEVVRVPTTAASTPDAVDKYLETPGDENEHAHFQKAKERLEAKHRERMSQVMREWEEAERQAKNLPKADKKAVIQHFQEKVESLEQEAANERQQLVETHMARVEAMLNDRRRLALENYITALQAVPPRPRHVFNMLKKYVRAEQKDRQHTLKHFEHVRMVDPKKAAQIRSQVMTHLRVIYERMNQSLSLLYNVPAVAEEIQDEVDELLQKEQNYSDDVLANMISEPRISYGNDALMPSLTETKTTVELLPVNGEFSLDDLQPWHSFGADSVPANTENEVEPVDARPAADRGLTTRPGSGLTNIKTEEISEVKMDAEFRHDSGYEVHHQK
T4 sequence (peptide, as listed by the source): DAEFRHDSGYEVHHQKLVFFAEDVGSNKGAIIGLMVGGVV
T6 sequence (peptide, as listed by the source): as above

dot blot ratio (recognition of Abeta(20-42) globulomer relative to this Abeta form) [1]: 1
dot blot ratio (recognition of Abeta(20-42) globulomer relative to this Abeta form) [2]: 6
dot blot ratio (recognition of Abeta(20-42) globulomer relative to this Abeta form) [3]: 0.2
B1: Anti-Abeta monoclonal antibody clone 6E10 (Covance cat. no. SIG-39320) (antibody, V domains shown)
VH: EVQLQQSGAELVKPGASVKLCTASGFNIKDTYIHWVKQRPEQGLEWIGRFDPVNVNTRYDSRFRGKATITSDASSNTAYLHLNSLTSEDTAVYYCSRSYYNGRRRFTYWGQGTLVTVSA
VL: DIVMTQSPSSLTVTAGEKVALTCKASQSLLSSGNQKNYLTWYQQKPGQPPKLLIYWASIRESGVPDRFTGSGSGTFFTLTISSVQAEDLAVYYCQNDYNYPFTFGSGTKLEIK

dot blot ratio (recognition of Abeta(20-42) globulomer relative to this Abeta form) [1]: 1
dot blot ratio (recognition of Abeta(20-42) globulomer relative to this Abeta form) [4]: 110000
dot blot ratio (recognition of Abeta(20-42) globulomer relative to this Abeta form) [5]: 36000
dot blot ratio (recognition of Abeta(20-42) globulomer relative to this Abeta form) [6]: 27300
dot blot ratio (recognition of Abeta(20-42) globulomer relative to this Abeta form) [7]: 30000
dot blot ratio (recognition of Abeta(20-42) globulomer relative to this Abeta form) [2]: 60000
dot blot ratio (recognition of Abeta(20-42) globulomer relative to this Abeta form) [8]: 32600
dot blot ratio (recognition of Abeta(20-42) globulomer relative to this Abeta form) [9]: 39500
binding result [10]: no binding
binding result [11]: no binding
binding result [12]: no binding
binding result [13]: no binding
binding result [14]: no binding
binding result [15]: no binding
binding result [16]: no binding
binding result [17]: no binding
B2: murine monoclonal antibody m4C9 (antibody, V domains shown)
VH: QVQLQQPGAELVKPGASVKLSCKAPGYTFTSYWMHWVKQRPGQGLEWIGRIDPKSGDTKYTEKFKSKATLTVDKPSSTAYMQLSSLTSEDSAVYYCTTMSKLSGTHAWFAYWGQGTLVTVSA
VL: DIKMTQSPSSMYASLGERVTITCKASQDINSYLTWFQQKPGKSPKTLIYRANRLVDGVPSRFSGSGSGQDYSLTISSLEYEDMGIYYCLQYDEFPLTFGAGTKLELK
notes: Murine monoclonal antibody from hybridoma after immunization of mice with Abeta(20-42) globulomer; also called mAb m4C9; mAb 4C9

binding result [10]: no binding
binding result [11]: no binding
binding result [12]: no binding
binding result [13]: no binding
binding result [14]: no binding
binding result [15]: no binding
binding result [16]: no binding
binding result [17]: no binding
B3: murine monoclonal antibody m10B3 (antibody, V domains shown)
VH: EVKLVESGGGLVQPGGSRKLSCAASGFTFSDYEMVWVRQAPGEGLEWVAYISSGSRTIHYADTVKGRFTISRDNPKNTLFLQMSSLRSEDTAMYYCARTLLRLHFDYWGQGTILTVSS
VL: not shown
notes: Murine monoclonal antibody from hybridoma after immunization of mice with Abeta(20-42) globulomer; also called mAb m10B3; mAb 10B3
